These results are taken from US20230338477A1 (published 2023).

First the molecules themselves.
B1: 69332 (antibody, V domains shown)
VH: QVTLRESGPALVKPSQTLTLTCTFSGFSLNTYGMFVSWIRQPPGKALEWLAHIHWDDDKYYSTSLKTRLTISKDTSKNQVVLTMTNMDPVDTATYYCARGHNNLNYIIHWGQGTLVTVSS
VL: AIQMTQSPSSLSASVGDRVTITCRASQGIRNDLGWYQQKPGKAPKLLIYAASTLQSGVPSRFSGSGSGTDFTLTISSLQPEDFATYYCLQDYNYPFTFGPGTKVDIK
notes: Anti-hTfR antibody of the initial screen; only variable domains are tied to it
B2: 69331 (antibody, V domains shown)
VH: QVQLVESGGGVVQPGRSLRLSCIASGFTFSVYGIHWVRQAPGKGLEWMAVISHDGNIKHYADSVKGRFTISRDNSKNTLYLQINSLRTEDTAVYYCAKDTWNSLDTFDIWGQGTMVTVSS
VL: DIQLTQSPSSLSASVGDRVTITCWASQGISSYLAWYQQKPGKAPKLLIYAASTLQSGVPSRFSGSGSGTEFTLTISSLQPEDFATYYCQQLNSYPLTFGGGTKVEIK
notes: as for B1
B3: 69340 (antibody, V domains shown)
VH: EVQLVESGGGLVQPGRSLRLSCAASGFTFDDKAMHWVRQVPGKGLEWISGISWNSGTIGYADSVKGRFIISRDNAKNSLYLQMNSLRAEDTALYYCAKDGDTSGWYWYGLDVWGQGTTVTVSS
VL: EIVLTQSPATLSLSPGERATLSCRASQSVSSYLAWYQQKPGQAPRLLIHDVSNRATGIPARFSGSGSGTDFTLTISSLEPEDFVVYYCQQRSDWPITFGQGTRLEIK
notes: as for B1
B4: 69326 (antibody, V domains shown)
VH: EVQLVESGGGLVQPGGSLRLSCAVSGFIFSSYEMNWVRQAPGKGLEWVSYISSSGSTIFYADSVKGRFTISRDNAKNSLYLQMNSLRAEDTAVYYCVSGVVLFDVWGQGTMVTVSS
VL: EIVMTQSPATLSVSPGERATLSCRASQSVSSNFAWYQQKPGQAPRLLIYSASSRATGIPVRFSGSGSGTEFTLTISSLQSEDFAVYYCQQYNIWPRTFGQGTKVEIK
notes: as for B1
B5: 69263 (antibody, V domains shown)
VH: EVQLVESGGGLVQPGRSLRLSCAVSGFTFDDYAMHWVRQAPGKGLEWVSGISWNSGTRGYADSVKGRFTISRDNAKNSLYLQMNSLRGEDTALYYCVKDITISPNYYGMDVWGQGTTVTVSS
VL: DIQMTQSPSSLSASVGDRVTITCRASQDISHYSAWYQQKPGKLPNLLIYAASTLQSGVPSRFSGSGSGTDFSLTTSSLQPEDVATYYCQKYNSVPLTFGGGTKVEIK
notes: as for B1
B6: 69348 (antibody, V domains shown)
VH: QVQLVESGGGVVQPGRSLRLSCAASGFTFTTYGMHWVRQAPGKGLEWVAVIWYDGSNKYYGDSVKGRFTISRDNSKNTLYLQMNSLRVDDTAVYYCTRTHGYTRSSDGFDYWGQGTLVTVSS
VL: DIQMTQSPSSLSASVGDRVTITCRASQSIRNVLGWFQQKPGKAPQRLIYAASSLQSGVPSRFSGSGSGTEFTLTISSLQPEDFATYYCLQHNFYPLTFGGGTKVEIK
notes: as for B1

T1 sequence (P02786 89-760 limits assumed): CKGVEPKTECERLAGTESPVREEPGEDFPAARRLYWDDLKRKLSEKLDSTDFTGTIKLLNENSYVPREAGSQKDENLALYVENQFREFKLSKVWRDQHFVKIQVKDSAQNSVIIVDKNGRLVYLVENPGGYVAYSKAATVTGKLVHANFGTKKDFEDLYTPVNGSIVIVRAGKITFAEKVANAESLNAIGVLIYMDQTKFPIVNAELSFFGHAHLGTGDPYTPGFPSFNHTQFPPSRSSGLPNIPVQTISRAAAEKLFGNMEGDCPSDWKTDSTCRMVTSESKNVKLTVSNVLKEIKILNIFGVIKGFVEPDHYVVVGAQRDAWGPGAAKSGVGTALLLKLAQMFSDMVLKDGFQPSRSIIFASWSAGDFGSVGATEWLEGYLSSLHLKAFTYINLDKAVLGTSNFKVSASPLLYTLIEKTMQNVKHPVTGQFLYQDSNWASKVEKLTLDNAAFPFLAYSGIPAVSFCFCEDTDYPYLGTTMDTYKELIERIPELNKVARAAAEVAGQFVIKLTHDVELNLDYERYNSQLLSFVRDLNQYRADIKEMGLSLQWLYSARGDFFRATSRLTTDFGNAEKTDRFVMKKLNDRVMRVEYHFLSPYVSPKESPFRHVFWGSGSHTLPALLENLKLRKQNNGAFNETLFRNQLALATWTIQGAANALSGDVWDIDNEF

The assay has as its target T1, human transferrin receptor 1 (hTfR) (human, UniProt P02786 89-760, limits assumed).
T1 construct: also called TFRC; transferrin receptor protein 1
Nature of the assay: in vitro binding screen, method not described.
In the case of B1, the binding result is “binds”.
B2: the binding result is given as “binds”.
For B3, the binding result is “binds”.
Next, B4: “binds”; B5: “binds”; B6: “binds”.
